# Experimental data published in PMC2606688, “High-fidelity correction of genomic uracil by human mismatch repair activities”.
# B1: U•G duplex (EDL56/EDL364) (dsDNA)
# DNA 1: GCCGAATTTCTAGAATUGAAAGCTTGCTAG
# DNA 2: CTAGCAAGCTTTCGATTCTAGAAATTCGGC
# modifications: deoxyuridine at position 17 of strand 1, mispaired with G
# Tests used:
# [1] = target: T1, MSH2 (MutSα subunit);MSH6 (MutSα subunit) (Homo sapiens;Homo sapiens, UniProt P43246;P52701 1-934;1-1360, |); assay: competition; unlabeled N1 at 50-fold molar excess against labeled N1 (EMSA); 25 mM Tris pH 7.7, 100 mM KCl, 1 mM EDTA, 1 mM DTT, 7.5% glycerol, 10 fmol labeled duplex in 30 µl, homoduplex competitor, on ice 5 min; 6% native PAGE in 0.5x; settings: protein: recombinant;recombinant; tags: ;; copies: 1;1; label: 5'-32P on strand 1 (EDL56); blunt, 30 bp, single U•G mismatch
# [2] = target: T1, MSH2 (MutSα subunit);MSH6 (MutSα …); assay: EMSA; apparent Kd; homoduplex competitor EDL365/EDL366 in reaction; no Mg2+, 1 mM EDTA; 25 mM Tris pH 7.7, 100 mM KCl, 1 mM EDTA, 1 mM DTT, 7.5% glycerol, 10 fmol labeled duplex in 30 µl, homoduplex competitor, on ice 5 min; 6% native PAGE in 0.5x; settings: protein: recombinant;recombinant; tags: ;; copies: 1;1; label: 5'-32P on strand 1 (EDL56); blunt, 30 bp, single U•G mismatch
binder,measurement,setting,value
B1,binding signal,[1],> 5 fold decrease of probe binding
same,Kd,[2],70 nM
